Test results taken from the supplement of paper PMC11246515.
± gives the standard deviation of the averaged measurements.

Test: total protein half-life in vivo (active degradation + dilution); higher = more stable protein
[1] = E. coli NCM3722 delta-clpP delta-lon delta-hslV, growth: N-lim chemostat, doubling time 6 h
[2] = E. coli NCM3722 delta-clpP, growth: N-lim chemostat, doubling time 6 h
[3] = E. coli NCM3722 delta-hslV, growth: N-lim chemostat, doubling time 6 h
[4] = E. coli NCM3722 delta-lon, growth: N-lim chemostat, doubling time 6 h
[5] = E. coli NCM3722 delta-smpB, growth: N-lim chemostat, doubling time 6 h
[6] = wild type E. coli NCM3722, growth: C-lim chemostat, doubling time 3 h
[7] = wild type E. coli NCM3722, growth: C-lim chemostat, doubling time 6 h
[8] = wild type E. coli NCM3722, growth: C-lim chemostat, doubling time 12 h
[9] = wild type E. coli NCM3722, growth: N-lim chemostat, doubling time 6 h
[10] = wild type E. coli NCM3722, growth: N-lim chemostat, doubling time 12 h
[11] = wild type E. coli NCM3722, growth: P-lim chemostat, doubling time 6 h
[12] = wild type E. coli NCM3722, growth: P-lim chemostat, doubling time 12 h

Sequence	total protein half-life in vivo [1]	total protein half-life in vivo [2]	total protein half-life in vivo [3]	total protein half-life in vivo [4]	total protein half-life in vivo [5]	total protein half-life in vivo [6]	total protein half-life in vivo [7]	total protein half-life in vivo [8]	total protein half-life in vivo [9]	total protein half-life in vivo [10]	total protein half-life in vivo [11]	total protein half-life in vivo [12]
MATIDSMNKDTTRLSDGPDWTFDLLDVYLAEIDRVAKLYRLDTYPHQIEVITSEQMMDAYSSVGMPINYPHWSFGKKFIETERLYKHGQQGLAYEIVINSNPCIAYLMEENTITMQALVMAHACYGHNSFFKNNYLFRSWTDASSIVDYLIFARKYITECEERYGVDEVERLLDSCHALMNYGVDRYKRPQKISLQEEKARQKSREEYLQSQVNMLWRTLPKREEEKTVAEARRYPSEPQENLLYFMEKNAPLLESWQREILRIVRKVSQYFYPQKQTQVMNEGWATFWHYTILNHLYDEGKVTERFMLEFLHSHTNVVFQPPYNSPWYSGINPYALGFAMFQDIKRICQSPTEEDKYWFPDIAGSDWLETLHFAMRDFKDESFISQFLSPKVMRDFRFFTVLDDDRHNYLEISAIHNEEGYREIRNRLSSQYNLSNLEPNIQIWNVDLRGDRSLTLRYIPHNRAPLDRGRKEVLKHVHRLWGFDVMLEQQNEDGSIELLERCPPRMGNL	4.27 ± 0.81 h	2.4 ± 0.062 h	1.59 ± 0.2 h	1.41 ± 0.15 h	1.49 ± 0.034 h	1.05 ± 0.18 h	1.49 ± 0.059 h	1.94 ± 0.49 h	1.48 ± 0.34 h	1.65 ± 0.15 h	1.48 ± 0.55 h	2.27 ± 0.67 h
MATIKDVAKRANVSTTTVSHVINKTRFVAEETRNAVWAAIKELHYSPSAVARSLKVNHTKSIGLLATSSEAAYFAEIIEAVEKNCFQKGYTLILGNAWNNLEKQRAYLSMMAQKRVDGLLVMCSEYPEPLLAMLEEYRHIPMVVMDWGEAKADFTDAVIDNAFEGGYMAGRYLIERGHREIGVIPGPLERNTGAGRLAGFMKAMEEAMIKVPESWIVQGDFEPESGYRAMQQILSQPHRPTAVFCGGDIMAMGALCAADEMGLRVPQDVSLIGYDNVRNARYFTPALTTIHQPKDSLGETAFNMLLDRIVNKREEPQSIEVHPRLIERRSVADGPFRDYRR [P0ACP7]	5.38 ± 0.92 h	5.291 ± 0.032 h	4.538 ± 0.044 h	5.39 ± 0.36 h	4.55 ± 0.3 h	3.02 ± 0.049 h	5.87 ± 0.35 h	10.4 ± 1.1 h	5.02 ± 0.61 h	7.74 ± 1.6 h	5.29 ± 0.41 h	10.9 ± 1.4 h
MATLKDIAIEAGVSLATVSRVLNDDPTLNVKEETKHRILEIAEKLEYKTSSARKLQTGAVNQHHILAIYSYQQELEINDPYYLAIRHGIETQCEKLGIELTNCYEHSGLPDIKNVTGILIVGKPTPALRAAASALTDNICFIDFHEPGSGYDAVDIDLARISKEIIDFYINQGVNRIGFIGGEDEPGKADIREVAFAEYGRLKQVVREEDIWRGGFSSSSGYELAKQMLAREDYPKALFVASDSIAIGVLRAIHERGLNIPQDISLISVNDIPTARFTFPPLSTVRIHSEMMGSQGVNLVYEKARDGRALPLLVFVPSKLKLRGTTR	5.54 ± 0.078 h	6.95 ± 1.2 h	5.31 ± 0.62 h	5.72 ± 0.54 h	5.35 ± 0.066 h	2.89 ± 0.27 h	5.94 ± 0.29 h	9.8 ± 0.15 h	5.07 ± 0.53 h	–	6.01 ± 0.76 h	13.4 ± 2.6 h
MATLTAKNLAKAYKGRRVVEDVSLTVNSGEIVGLLGPNGAGKTTTFYMVVGIVPRDAGNIIIDDDDISLLPLHARARRGIGYLPQEASIFRRLSVYDNLMAVLQIRDDLSAEQREDRANELMEEFHIEHLRDSMGQSLSGGERRRVEIARALAANPKFILLDEPFAGVDPISVIDIKRIIEHLRDSGLGVLITDHNVRETLAVCERAYIVSQGHLIAHGTPTEILQDEHVKRVYLGEDFRL [P0A9V1]	6.21 ± 0.31 h	6.33 ± 0.48 h	5.919 ± 0.031 h	6.05 ± 0.57 h	5.51 ± 0.55 h	2.811 ± 0.004 h	6.061 ± 0.04 h	11.2 ± 0.66 h	5.52 ± 0.24 h	13.3 ± 0.87 h	5.46 ± 0.24 h	12.4 ± 0.82 h
MATNAKPVYKRILLKLSGEALQGTEGFGIDASILDRMAQEIKELVELGIQVGVVIGGGNLFRGAGLAKAGMNRVVGDHMGMLATVMNGLAMRDALHRAYVNARLMSAIPLNGVCDSYSWAEAISLLRNNRVVILSAGTGNPFFTTDSAACLRGIEIEADVVLKATKVDGVFTADPAKDPTATMYEQLTYSEVLEKELKVMDLAAFTLARDHKLPIRVFNMNKPGALRRVVMGEKEGTLITE [P0A7E9]	4.84 ± 0.3 h	5.18 ± 0.45 h	4.79 ± 0.38 h	5.16 ± 0.34 h	4.49 ± 0.16 h	3.24 ± 0.27 h	7 ± 1.2 h	10.4 ± 1.8 h	4.93 ± 0.33 h	8.29 ± 1 h	5.84 ± 0.27 h	14.4 ± 0.48 h
MATNLRGVMAALLTPFDQQQALDKASLRRLVQFNIQQGIDGLYVGGSTGEAFVQSLSEREQVLEIVAEEAKGKIKLIAHVGCVSTAESQQLAASAKRYGFDAVSAVTPFYYPFSFEEHCDHYRAIIDSADGLPMVVYNIPALSGVKLTLDQINTLVTLPGVGALKQTSGDLYQMEQIRREHPDLVLYNGYDEIFASGLLAGADGGIGSTYNIMGWRYQGIVKALKEGDIQTAQKLQTECNKVIDLLIKTGVFRGLKTVLHYMDVVSVPLCRKPFGPVDEKYLPELKALAQQLMQERG [P0A6L4]	2.77 ± 0.23 h	1.88 ± 0.19 h	3.01 h	2.66 h	1.84 ± 0.085 h	2.81 ± 0.23 h	3.81 ± 0.35 h	5.83 ± 1.4 h	2.28 h	2.1 ± 0.3 h	4.43 ± 0.18 h	8.79 h
